# Results published in the Human Domainome abundance scans (Beltran et al. 2025).
# ± gives the uncertainty stated by the source.
# B1: GA-binding protein alpha chain, residues 172 to 250; numbered along this chain, Q06546 (parent)
# chain: GYRKEQERLGIPYDPIQWSTDQVLHWVVWVMKEFSMTDIDLTTLNISGRELCSLNQEDFFQRVPRGEILWSHLELLRKY
# Variants of: B1
# Assay: abundance fitness (aPCA) (normalised: wild type 0, dead -1); higher = more abundant; growth selection in yeast, the domain comes from the species named
# Conditions: Homo sapiens
row,Variant,abundance fitness
1,GYRKEQERLGIPYDPHQWSTDQVLHWVVWVMKEFSMTDIDLTTLNISGRELCSLNQEDFFQRVPRGEILWSHLELLRKY [I16H],0.099 ± 0.073
2,GYRKEQERLGIPYDPKQWSTDQVLHWVVWVMKEFSMTDIDLTTLNISGRELCSLNQEDFFQRVPRGEILWSHLELLRKY [I16K],-0.025 ± 0.085
3,GYRKEQERLGIPYDPLQWSTDQVLHWVVWVMKEFSMTDIDLTTLNISGRELCSLNQEDFFQRVPRGEILWSHLELLRKY [I16L],-0.012 ± 0.036
4,GYRKEQERLGIPYDPMQWSTDQVLHWVVWVMKEFSMTDIDLTTLNISGRELCSLNQEDFFQRVPRGEILWSHLELLRKY [I16M],0.032 ± 0.26
5,GYRKEQERLGIPYDPNQWSTDQVLHWVVWVMKEFSMTDIDLTTLNISGRELCSLNQEDFFQRVPRGEILWSHLELLRKY [I16N],-0.082 ± 0.07
6,GYRKEQERLGIPYDPPQWSTDQVLHWVVWVMKEFSMTDIDLTTLNISGRELCSLNQEDFFQRVPRGEILWSHLELLRKY [I16P],-0.458 ± 0.059
7,GYRKEQERLGIPYDPQQWSTDQVLHWVVWVMKEFSMTDIDLTTLNISGRELCSLNQEDFFQRVPRGEILWSHLELLRKY [I16Q],0.036 ± 0.074
8,GYRKEQERLGIPYDPRQWSTDQVLHWVVWVMKEFSMTDIDLTTLNISGRELCSLNQEDFFQRVPRGEILWSHLELLRKY [I16R],-0.013 ± 0.03
9,GYRKEQERLGIPYDPTQWSTDQVLHWVVWVMKEFSMTDIDLTTLNISGRELCSLNQEDFFQRVPRGEILWSHLELLRKY [I16T],-0.065 ± 0.069
10,GYRKEQERLGIPYDPVQWSTDQVLHWVVWVMKEFSMTDIDLTTLNISGRELCSLNQEDFFQRVPRGEILWSHLELLRKY [I16V],-0.014 ± 0.034
11,GYRKEQERLGIPYDPWQWSTDQVLHWVVWVMKEFSMTDIDLTTLNISGRELCSLNQEDFFQRVPRGEILWSHLELLRKY [I16W],-0.016 ± 0.056
12,GYRKEQERLGIPYDPYQWSTDQVLHWVVWVMKEFSMTDIDLTTLNISGRELCSLNQEDFFQRVPRGEILWSHLELLRKY [I16Y],0.037 ± 0.09
13,GYRKEQERLGIPYDPIAWSTDQVLHWVVWVMKEFSMTDIDLTTLNISGRELCSLNQEDFFQRVPRGEILWSHLELLRKY [Q17A],-0.056 ± 0.043
14,GYRKEQERLGIPYDPICWSTDQVLHWVVWVMKEFSMTDIDLTTLNISGRELCSLNQEDFFQRVPRGEILWSHLELLRKY [Q17C],-0.127 ± 0.06
15,GYRKEQERLGIPYDPIDWSTDQVLHWVVWVMKEFSMTDIDLTTLNISGRELCSLNQEDFFQRVPRGEILWSHLELLRKY [Q17D],0.017 ± 0.16
16,GYRKEQERLGIPYDPIEWSTDQVLHWVVWVMKEFSMTDIDLTTLNISGRELCSLNQEDFFQRVPRGEILWSHLELLRKY [Q17E],0.049 ± 0.07
17,GYRKEQERLGIPYDPIFWSTDQVLHWVVWVMKEFSMTDIDLTTLNISGRELCSLNQEDFFQRVPRGEILWSHLELLRKY [Q17F],-0.28 ± 0.1
18,GYRKEQERLGIPYDPIGWSTDQVLHWVVWVMKEFSMTDIDLTTLNISGRELCSLNQEDFFQRVPRGEILWSHLELLRKY [Q17G],-0.099 ± 0.04
19,GYRKEQERLGIPYDPIHWSTDQVLHWVVWVMKEFSMTDIDLTTLNISGRELCSLNQEDFFQRVPRGEILWSHLELLRKY [Q17H],0.085 ± 0.082
20,GYRKEQERLGIPYDPIIWSTDQVLHWVVWVMKEFSMTDIDLTTLNISGRELCSLNQEDFFQRVPRGEILWSHLELLRKY [Q17I],-0.269 ± 0.07
21,GYRKEQERLGIPYDPIKWSTDQVLHWVVWVMKEFSMTDIDLTTLNISGRELCSLNQEDFFQRVPRGEILWSHLELLRKY [Q17K],-0.143 ± 0.059
22,GYRKEQERLGIPYDPILWSTDQVLHWVVWVMKEFSMTDIDLTTLNISGRELCSLNQEDFFQRVPRGEILWSHLELLRKY [Q17L],-0.01 ± 0.034
23,GYRKEQERLGIPYDPIMWSTDQVLHWVVWVMKEFSMTDIDLTTLNISGRELCSLNQEDFFQRVPRGEILWSHLELLRKY [Q17M],-0.134 ± 0.069

row,Variant,abundance fitness
1,GYRKEQERLGIPYDPINWSTDQVLHWVVWVMKEFSMTDIDLTTLNISGRELCSLNQEDFFQRVPRGEILWSHLELLRKY [Q17N],-0.062 ± 0.1
2,GYRKEQERLGIPYDPIPWSTDQVLHWVVWVMKEFSMTDIDLTTLNISGRELCSLNQEDFFQRVPRGEILWSHLELLRKY [Q17P],-0.942 ± 0.14
3,GYRKEQERLGIPYDPIRWSTDQVLHWVVWVMKEFSMTDIDLTTLNISGRELCSLNQEDFFQRVPRGEILWSHLELLRKY [Q17R],-0.009 ± 0.036
4,GYRKEQERLGIPYDPITWSTDQVLHWVVWVMKEFSMTDIDLTTLNISGRELCSLNQEDFFQRVPRGEILWSHLELLRKY [Q17T],-0.029 ± 0.098
5,GYRKEQERLGIPYDPIVWSTDQVLHWVVWVMKEFSMTDIDLTTLNISGRELCSLNQEDFFQRVPRGEILWSHLELLRKY [Q17V],-0.121 ± 0.043
6,GYRKEQERLGIPYDPIWWSTDQVLHWVVWVMKEFSMTDIDLTTLNISGRELCSLNQEDFFQRVPRGEILWSHLELLRKY [Q17W],-0.08 ± 0.048
7,GYRKEQERLGIPYDPIQASTDQVLHWVVWVMKEFSMTDIDLTTLNISGRELCSLNQEDFFQRVPRGEILWSHLELLRKY [W18A],-0.862 ± 0.11
8,GYRKEQERLGIPYDPIQDSTDQVLHWVVWVMKEFSMTDIDLTTLNISGRELCSLNQEDFFQRVPRGEILWSHLELLRKY [W18D],-1.05 ± 0.24
9,GYRKEQERLGIPYDPIQFSTDQVLHWVVWVMKEFSMTDIDLTTLNISGRELCSLNQEDFFQRVPRGEILWSHLELLRKY [W18F],-0.901 ± 0.28
10,GYRKEQERLGIPYDPIQGSTDQVLHWVVWVMKEFSMTDIDLTTLNISGRELCSLNQEDFFQRVPRGEILWSHLELLRKY [W18G],-0.779 ± 0.053
11,GYRKEQERLGIPYDPIQHSTDQVLHWVVWVMKEFSMTDIDLTTLNISGRELCSLNQEDFFQRVPRGEILWSHLELLRKY [W18H],-1 ± 0.46
12,GYRKEQERLGIPYDPIQISTDQVLHWVVWVMKEFSMTDIDLTTLNISGRELCSLNQEDFFQRVPRGEILWSHLELLRKY [W18I],-0.915 ± 0.24
13,GYRKEQERLGIPYDPIQKSTDQVLHWVVWVMKEFSMTDIDLTTLNISGRELCSLNQEDFFQRVPRGEILWSHLELLRKY [W18K],-0.864 ± 0.15
14,GYRKEQERLGIPYDPIQLSTDQVLHWVVWVMKEFSMTDIDLTTLNISGRELCSLNQEDFFQRVPRGEILWSHLELLRKY [W18L],-0.974 ± 0.087
15,GYRKEQERLGIPYDPIQMSTDQVLHWVVWVMKEFSMTDIDLTTLNISGRELCSLNQEDFFQRVPRGEILWSHLELLRKY [W18M],-0.957 ± 0.18
16,GYRKEQERLGIPYDPIQNSTDQVLHWVVWVMKEFSMTDIDLTTLNISGRELCSLNQEDFFQRVPRGEILWSHLELLRKY [W18N],-0.134 ± 0.18
17,GYRKEQERLGIPYDPIQQSTDQVLHWVVWVMKEFSMTDIDLTTLNISGRELCSLNQEDFFQRVPRGEILWSHLELLRKY [W18Q],-0.944 ± 0.13
18,GYRKEQERLGIPYDPIQRSTDQVLHWVVWVMKEFSMTDIDLTTLNISGRELCSLNQEDFFQRVPRGEILWSHLELLRKY [W18R],-0.905 ± 0.07
19,GYRKEQERLGIPYDPIQSSTDQVLHWVVWVMKEFSMTDIDLTTLNISGRELCSLNQEDFFQRVPRGEILWSHLELLRKY [W18S],-0.835 ± 0.072
20,GYRKEQERLGIPYDPIQTSTDQVLHWVVWVMKEFSMTDIDLTTLNISGRELCSLNQEDFFQRVPRGEILWSHLELLRKY [W18T],-0.98 ± 0.16
21,GYRKEQERLGIPYDPIQVSTDQVLHWVVWVMKEFSMTDIDLTTLNISGRELCSLNQEDFFQRVPRGEILWSHLELLRKY [W18V],-0.927 ± 0.081
22,GYRKEQERLGIPYDPIQYSTDQVLHWVVWVMKEFSMTDIDLTTLNISGRELCSLNQEDFFQRVPRGEILWSHLELLRKY [W18Y],-0.669 ± 0.14
23,GYRKEQERLGIPYDPIQWATDQVLHWVVWVMKEFSMTDIDLTTLNISGRELCSLNQEDFFQRVPRGEILWSHLELLRKY [S19A],-0.664 ± 0.062

row,Variant,abundance fitness
1,GYRKEQERLGIPYDPIQWCTDQVLHWVVWVMKEFSMTDIDLTTLNISGRELCSLNQEDFFQRVPRGEILWSHLELLRKY [S19C],-0.487 ± 0.065
2,GYRKEQERLGIPYDPIQWDTDQVLHWVVWVMKEFSMTDIDLTTLNISGRELCSLNQEDFFQRVPRGEILWSHLELLRKY [S19D],-0.048 ± 0.072
3,GYRKEQERLGIPYDPIQWETDQVLHWVVWVMKEFSMTDIDLTTLNISGRELCSLNQEDFFQRVPRGEILWSHLELLRKY [S19E],-0.311 ± 0.057
4,GYRKEQERLGIPYDPIQWFTDQVLHWVVWVMKEFSMTDIDLTTLNISGRELCSLNQEDFFQRVPRGEILWSHLELLRKY [S19F],-0.849 ± 0.12
5,GYRKEQERLGIPYDPIQWGTDQVLHWVVWVMKEFSMTDIDLTTLNISGRELCSLNQEDFFQRVPRGEILWSHLELLRKY [S19G],-0.34 ± 0.035
6,GYRKEQERLGIPYDPIQWHTDQVLHWVVWVMKEFSMTDIDLTTLNISGRELCSLNQEDFFQRVPRGEILWSHLELLRKY [S19H],-0.096 ± 0.17
7,GYRKEQERLGIPYDPIQWKTDQVLHWVVWVMKEFSMTDIDLTTLNISGRELCSLNQEDFFQRVPRGEILWSHLELLRKY [S19K],-0.281 ± 0.077
8,GYRKEQERLGIPYDPIQWLTDQVLHWVVWVMKEFSMTDIDLTTLNISGRELCSLNQEDFFQRVPRGEILWSHLELLRKY [S19L],-0.864 ± 0.094
9,GYRKEQERLGIPYDPIQWMTDQVLHWVVWVMKEFSMTDIDLTTLNISGRELCSLNQEDFFQRVPRGEILWSHLELLRKY [S19M],-0.836 ± 0.14
10,GYRKEQERLGIPYDPIQWNTDQVLHWVVWVMKEFSMTDIDLTTLNISGRELCSLNQEDFFQRVPRGEILWSHLELLRKY [S19N],-0.053 ± 0.11
11,GYRKEQERLGIPYDPIQWPTDQVLHWVVWVMKEFSMTDIDLTTLNISGRELCSLNQEDFFQRVPRGEILWSHLELLRKY [S19P],-0.82 ± 0.1
12,GYRKEQERLGIPYDPIQWQTDQVLHWVVWVMKEFSMTDIDLTTLNISGRELCSLNQEDFFQRVPRGEILWSHLELLRKY [S19Q],-0.225 ± 0.053
13,GYRKEQERLGIPYDPIQWRTDQVLHWVVWVMKEFSMTDIDLTTLNISGRELCSLNQEDFFQRVPRGEILWSHLELLRKY [S19R],-0.14 ± 0.029
14,GYRKEQERLGIPYDPIQWTTDQVLHWVVWVMKEFSMTDIDLTTLNISGRELCSLNQEDFFQRVPRGEILWSHLELLRKY [S19T],0.05 ± 0.073
15,GYRKEQERLGIPYDPIQWVTDQVLHWVVWVMKEFSMTDIDLTTLNISGRELCSLNQEDFFQRVPRGEILWSHLELLRKY [S19V],-0.996 ± 0.1
16,GYRKEQERLGIPYDPIQWWTDQVLHWVVWVMKEFSMTDIDLTTLNISGRELCSLNQEDFFQRVPRGEILWSHLELLRKY [S19W],-0.927 ± 0.11
17,GYRKEQERLGIPYDPIQWYTDQVLHWVVWVMKEFSMTDIDLTTLNISGRELCSLNQEDFFQRVPRGEILWSHLELLRKY [S19Y],-0.65 ± 0.14
18,GYRKEQERLGIPYDPIQWSADQVLHWVVWVMKEFSMTDIDLTTLNISGRELCSLNQEDFFQRVPRGEILWSHLELLRKY [T20A],0.024 ± 0.043
19,GYRKEQERLGIPYDPIQWSCDQVLHWVVWVMKEFSMTDIDLTTLNISGRELCSLNQEDFFQRVPRGEILWSHLELLRKY [T20C],-0.118 ± 0.069
20,GYRKEQERLGIPYDPIQWSDDQVLHWVVWVMKEFSMTDIDLTTLNISGRELCSLNQEDFFQRVPRGEILWSHLELLRKY [T20D],-0.101 ± 0.086
21,GYRKEQERLGIPYDPIQWSEDQVLHWVVWVMKEFSMTDIDLTTLNISGRELCSLNQEDFFQRVPRGEILWSHLELLRKY [T20E],0.039 ± 0.053
22,GYRKEQERLGIPYDPIQWSFDQVLHWVVWVMKEFSMTDIDLTTLNISGRELCSLNQEDFFQRVPRGEILWSHLELLRKY [T20F],-0.716 ± 0.19
23,GYRKEQERLGIPYDPIQWSGDQVLHWVVWVMKEFSMTDIDLTTLNISGRELCSLNQEDFFQRVPRGEILWSHLELLRKY [T20G],-0.069 ± 0.032
